Assay results published in publication PMC3315485.

Experiments:
Test in all cases: MITOMI
[1] = test system: MarA RTR (Escherichia coli); conditions: MITOMI at 295 K; buffer, salt and pH not given in the material; scale: ddG kJ/mol vs strongest site
[2] = test system: MarA RQR (Escherichia coli); conditions: MITOMI at 295 K; buffer, salt and pH not given in the material
[3] = test system: MarA wild type (WQR) (Escherichia coli); conditions: MITOMI at 295 K; buffer, salt and pH not given in the material
[4] = test system: MarA TRR (Escherichia coli); conditions: MITOMI at 295 K; buffer, salt and pH not given in the material

Substance	binding signal [1]	further results
mar site GAA	> 3.3	–
mar site GAT	> 3.3	–
mar site TCC	–	binding signal (relative KA (strongest site = 1)) [2]: 1
mar site GCA	–	binding signal (fold reduced affinity vs TCC) [2]: 1.6; binding signal (relative KA (strongest site = 1)) [3]: 1
mar site GAG	> 3.3	–
mar site GAC	> 3.3	binding signal (relative KA (strongest site = 1)) [4]: 1
